Measured values as given in paper doi:10.1101/2021.02.22.432116 (bioRxiv, 2021).
Values joined by “and” are separate entries in the source; they are usually repeats but may differ in a detail not shown here. Equal entries are not always repeated. Where two headings read alike, the source gives them in different places.

B1: UBQLN2 UBL domain (UBQLN2 1-107) (domain or fragment, human, UniProt Q9UHD9 1-107, looked up)
chain: MAENGESSGPPRPSRGPAAAQGSAAAPAEPKIIKVTVKTPKEKEEFAVPENSSVQQFKEAISKRFKSQTDQLVLIFAGKILKDQDTLIQHGIHDGLTVHLVIKSQNR
B3: UBQLN2 109-576 (domain or fragment, human, UniProt Q9UHD9 109-576, looked up)
chain: QGQSTQPSNAAGTNTTSASTPRSNSTPISTNSNPFGLGSLGGLAGLSSLGLSSTNFSELQSQMQQQLMASPEMMIQIMENPFVQSMLSNPDLMRQLIMANPQMQQLIQRNPEISHLLNNPDIMRQTLEIARNPAMMQEMMRNQDLALSNLESIPGGYNALRRMYTDIQEPMLNAAQEQFGGNPFASVGSSSSSGEGTQPSRTENRDPLPNPWAPPPATQSSATTSTTTSTGSGSGNSSSNATGNTVAAANYVASIFSTPGMQSLLQQITENPQLIQNMLSAPYMRSMMQSLSQNPDLAAQMMLNSPLFTANPQLQEQMRPQLPAFLQQMQNPDTLSAMSNPRAMQALMQIQQGLQTLATEAPGLIPSFTPGVGVGVLGTAIGPVGPVTPIGPIGPIVPFTPIGPIGPIGPTGPAAPPGSTGSGGPTGPTVSSAAPSETTSPTSESGPNQQFIQQMVQALAGANAPQLP
B4: UBQLN2 248-576 (domain or fragment, human, UniProt Q9UHD9 248-576, looked up)
chain: MRNQDLALSNLESIPGGYNALRRMYTDIQEPMLNAAQEQFGGNPFASVGSSSSSGEGTQPSRTENRDPLPNPWAPPPATQSSATTSTTTSTGSGSGNSSSNATGNTVAAANYVASIFSTPGMQSLLQQITENPQLIQNMLSAPYMRSMMQSLSQNPDLAAQMMLNSPLFTANPQLQEQMRPQLPAFLQQMQNPDTLSAMSNPRAMQALMQIQQGLQTLATEAPGLIPSFTPGVGVGVLGTAIGPVGPVTPIGPIGPIVPFTPIGPIGPIGPTGPAAPPGSTGSGGPTGPTVSSAAPSETTSPTSESGPNQQFIQQMVQALAGANAPQLP
B5: UBQLN2 UBA domain (UBQLN2 571-624) (domain or fragment, human, UniProt Q9UHD9 571-624, looked up)
chain: NAPQLPNPEVRFQQQLEQLNAMGFLNREANLQALIATGGDINAAIERLLGSQPS

Assays:
Assay in all cases: NMR titration
UBQLN2 109-576 [1] = target: B3
UBQLN2 178-576 = UBQLN2 178-576 (human, UniProt Q9UHD9 178-576)
UBQLN2 248-576 = target: B4
UBQLN2 379-576 = UBQLN2 379-576 (human, UniProt Q9UHD9 379-576)
UBQLN2 109-576 [2] = target: B3; remark: listed apart in the source
[3] = target: B5
[4] = target: B1
[5] = target: B1; remark: listed apart in the source

B1: binds (UBQLN2 109-576 [1]); binds (UBQLN2 178-576); binds (UBQLN2 248-576). B1: binds (UBQLN2 379-576).

B2: UBQLN2 UBL I80A (domain or fragment, human, UniProt Q9UHD9 1-107, looked up)
chain: MAENGESSGPPRPSRGPAAAQGSAAAPAEPKIIKVTVKTPKEKEEFAVPENSSVQQFKEAISKRFKSQTDQLVLIFAGKALKDQDTLIQHGIHDGLTVHLVIKSQNR
B2: binds (UBQLN2 109-576 [2]).

For B3, the “UBA peak intensity relative to isolated UBA” value [3] was 60%.

For B4, the “UBL peak intensity relative to isolated UBL” value [4] was 70%.

For B5, the Kd [5] was 178 µM and 210 µM.
